Data from patent publication US20110104248A1, “LIPOSOMES AND IMMUNOPOTENTIATING COMPOSITIONS CONTAINING THE SAME” (FOODCHEMIFA CO., LTD., priority 2007, published 2011).

Experiments:
[1] = system: splenocytes stimulated with OVA; assay: Antigen-specific IFN-γ production from splenocytes of treated mice; assay type: in vivo, mouse; conditions: 25 μg GSL-7 i.v.; spleen after 1 week; splenocytes stimulated with OVA 1 mg/ml, 96 hours
Procedure: Liposome F (prepared in an amount so that 25 μg of GSL-7 was contained) prepared as in Example 14 was administered to C57BL/6 mice (8- to 10-week-old males) through the caudal vein. After 1 week, the spleen was excised. Splenocytes (5×10^5) were stimulated with OVA (1 mg/ml). After 96 hours, IFN-γ levels in the culture supernatants were measured. IFN-γ levels were measured by sandwich ELISA using purified anti-IFN-γ antibodies (R4-6A2) as capture antibodies and biotin-labeled anti-IFN-γ antibodies (AN-18) as detection antibodies. In the subsequent reaction, alkaline phosphatase-labeled streptavidin was caused to bind to biotin-labeled antibodies. The color was developed using p-nitrophenyl phosphate as a substrate. The absorbance at a wavelength of 405 nm was measured using a microplate reader (MICROPLATE READER Model 550). IFN-γ concentrations in test samples were calculated based on the standard curve of IFN-γ in the recombinant mice.

[2] = system: C57BL/6 mice; assay: Enhancing antibody production: serum anti-OVA IgG2a by ELISA; assay type: in vivo, mouse; conditions: 25 μg GSL-7 and 25 μg OVA through the caudal vein, serum after 14 days, ELISA absorbance at 405 nm
Procedure: Liposome F (in an amount so that 25 μg of GSL-7 and 25 μg of OVA were contained) was administered to C57BL/6 mice (8- to 10-week-old females) through the caudal vein. After 14 days, blood was collected and then serum anti-OVA antibody levels were measured by ELISA. An anti-OVA antibody titer (IgG2a) was assayed by adding the gradually diluted serum to a 96-well plate coated with OVA. Alkaline phosphatase (AP)-labeled anti-mouse IgG2a antibodies were used as detection antibodies. The color was developed using paranitrophenylphosphate (p-nitrophenyl phosphate) as a substrate. The reaction was terminated with 3N NaOH, the absorbance at 405 nm was measured using a microplate reader.

B1: OVA: ovalbumin (OVA) (SIGMA), antigen (protein, UniProt P01012 2-386, looked up)
Ovalbumin: GSIGAASMEFCFDVFKELKVHHANENIFYCPIAIMSALAMVYLGAKDSTRTQINKVVRFDKLPGFGDSIEAQCGTSVNVHSSLRDILNQITKPNDVYSFSLASRLYAEERYPILPEYLQCVKELYRGGLEPINFQTAADQARELINSWVESQTNGIIRNVLQPSSVDSQTAMVLVNAIVFKGLWEKAFKDEDTQAMPFRVTEQESKPVQMMYQIGLFRVASMASEKMKILELPFASGTMSMLVLLPDEVSGLEQLESIINFEKLTEWTSSNVMEERKIKVYLPRMKMEEKYNLTSVLMAMGITDVFSSSANLSGISSAESLKISQAVHAAHAEINEAGREVVGSAEAGVDAASVSEEFRADHPFLFCIKHIATNAVLFFGRCVSP
[1]
  IFN-γ: 4.79 ± 0.45 ng/mL
[2]
  Anti-OVA IgG2a: 0.049 ± 0.018
